Measured values published in US20210214414A1 (Pfizer, published 2021).

Target: T1, Rat SLIT2-N (rat, UniProt Q9WVC1 31-766, limits assumed)
T1 construct: domain: SLIT2-N (N terminal fragment)
T1 sequence (looked up): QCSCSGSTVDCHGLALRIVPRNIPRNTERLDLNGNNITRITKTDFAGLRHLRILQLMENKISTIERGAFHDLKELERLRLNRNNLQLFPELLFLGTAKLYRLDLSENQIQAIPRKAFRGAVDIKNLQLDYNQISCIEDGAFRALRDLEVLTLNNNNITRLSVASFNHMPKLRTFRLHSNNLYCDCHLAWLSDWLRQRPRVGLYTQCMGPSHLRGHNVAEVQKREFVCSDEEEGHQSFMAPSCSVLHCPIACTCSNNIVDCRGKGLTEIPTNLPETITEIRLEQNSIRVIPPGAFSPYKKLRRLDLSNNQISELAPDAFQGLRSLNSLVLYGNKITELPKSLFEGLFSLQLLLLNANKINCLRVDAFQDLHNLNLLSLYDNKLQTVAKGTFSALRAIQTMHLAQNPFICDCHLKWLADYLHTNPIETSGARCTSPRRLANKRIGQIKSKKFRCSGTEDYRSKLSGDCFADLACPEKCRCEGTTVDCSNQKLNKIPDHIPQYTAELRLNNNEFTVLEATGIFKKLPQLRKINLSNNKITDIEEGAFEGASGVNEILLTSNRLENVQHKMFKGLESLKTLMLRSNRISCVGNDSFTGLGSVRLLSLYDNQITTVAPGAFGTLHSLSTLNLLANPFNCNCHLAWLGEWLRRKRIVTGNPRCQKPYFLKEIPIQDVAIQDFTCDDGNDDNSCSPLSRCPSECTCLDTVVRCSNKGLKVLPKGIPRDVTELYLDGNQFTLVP
Test: HTRF competition: d2-labelled rat SLIT2-N binding to human ROBO2 on HEK293 cells (competitor: cell surface ROBO2)
Experimental: After incubation, fluorescence at 665 nm and 620 nm was measured on an Envision multilabel plate reader. The HTRF Ratio was calculated as follows: fluorescence at 665 nm/fluorescence at 620 nm×10,000. […] The IC₅₀ for each SLITx-N was determined using an 11-point, 4-fold dilution series with a top concentration of 4000 nM.

B1: ROBO2-Fc 2.2 (Fc fusion)
chain: SRLRQEDFPPRIVEHPSDVIVSKGEPTTLNCKAEGRPTPTIEWYKDGERVETDKDDPRSHRMLLPSGSLFFLRIVHGRRSKPDEGSYVCVARNYLGEAVSRNASLEVALLRDDFRQNPTDVVVAAGEPAILECQPPRGHPEPTIYWKKDKVRIDDKEERISIRGGKLMISNTRKSDAGMYTCVGTNMVGERDSDPAELTVFERGGSGGSEPKSSDKTHTCPPCPAPEAAGAPSVFLFPPKPKDTLMISRTPEVTCVVVDVSHEDPEVKFNWYVDGVEVHNAKTKPREEQYNSTYRVVSVLTVLHQDWLNGKEYKCKVSNKALPAPIEKTISKAKGQPREPQVYTLPPSREEMTKNQVSLTCLVKGFYPSDIAVEWESNGQPENNYKTTPPVLDSDGSFFLYSKLTVDKSRWQQGNVFSCSVMHEALHNHYTQKSLSLSPG
notes: Labelled with Alexa Fluor 647 in the flow cytometry assay; also called ROBO-Fc 2.2; ROBO2-Fc 2.2-AF647
  IC50: 4 nM
